Assay: label from the status in PepcDB records
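Note: failed if final PepcDB status was selected cloned or expressed and not failed if soluble or beyond.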

Sequence: MGHHHHHHSHMATSSQYRQLLSDYGPPSLGYTQGTGNSQVPQSKYAELLAIIEELGKEIRPTYAGSKSAMERLKRGIIHARGLVRECLAETERNARS
- protein production: not failed

Sequence: PSFNLGYIGLNNRNEYLKNPKVRQAISMAINRRAVVDAFWSGLGRTDTSIVPPALGWATSSKVPADYKFDPAAAKKLLAEAGYPNGFTLDFWYMPITRSYFPQPKASAEAMAADLADVGIKVNLKTEDWAKYLDDLFAGRLSMFQIGLIGDYGDPDYFYGALYNPTSTNDIGWNAPAELDTLLQQARSGLTRQARAQAYARIHELTYNAGYRIPLVHSQ
- protein production: failed

Sequence: MNSTLFSQVENHSVHSNFSEKNAQLLAFENDDCHLPLAMIFTLALAYGAVIILGVSGNLALIIIILKQKEMRNVTNILIVNLSFSDLLVAIMCLPFTFVYTLMDHWVFGEAMCKLNPFVQCVSITVSIFSLVLIAVERHQLIINPRGWRPNNRHAYVGIAVIWVLAVASSLPFLIYQVMTDEPFQNVTLDAYKDKYVCFDQFPSDSHRLSYTTLLLVLQYFGPLCFIFICYFKIYIRLKRRNNMMDKMRDNKYRSSETKRINIMLLSIVVAFAVCWLPLTIFNTVFDWNHQIIATCNHNLLFLLCHLTAMISTCVNPIFYGFLNKNFQRDLQFFFNFCDFRSRDDDYETIAMSTMHTDVSKTSLKQASPVAFKKINNNDDNEKI
- protein production: failed

Sequence: MSEAPHLTFDLDTPGVSTGHLVVPKGADCEALSLPVFSCNRGEGPSLLITGGNHGNELQGPILARRLVKWLPEAQRCGRIIIVPEINPLAVQAWTRNTPIDGKNLNRVFPGRSDGSVSERIADAISRLLLPVVDTVLDLHSFGPTWDCAPSIISHPIADIDQMTKTVSISKAFKLPVTLLWEHNETDGMFDTLVHRQGKTFICTEFGGGVVSAEALTIYEAGVRNGLIALGLVKGKAEYPTFRQQKTGQTLETTSSDQLKSPSPGIFEPRCSVMDEVEQGDVVGVLHPMGSLSAASIDIRAQSKSTVFAIRSAMYVQGNEEVAILARPLAR
- protein production: not failed

Sequence: PKPLKNLDGQFCEICGDQIGLTVEGDLFVACNECGFPACRPCYEYERREGTQNCPQCKTRYKRLRGSPRVEGDEDEEDID
- protein production: not failed

Sequence: MGQELLVRAHEPETADIEIIPVTTVVQVTEQNSTGDAAVALDTVTVVGERYVDDIVATLTTLRVGMAVLLQRESGNQYDDNAISVWTLQHAKLGYIARYQNQPYATLMDQGQRLYGIVTVLDQQKQHLELMLWRTTAVPSPIEALEHHHHHH
- protein production: failed

Sequence: ITVADQISHWSAGRIKNRTRIPECIHSSAATTLAGPHTMEGESVKLSSQTLIQAGDDEKNQRTITVNPAHMGKAFKVMNELRSKQLLCDVMIVAEDVEIEAHRVVLAACSPYFCAMFTGDMSESKAKKIEIKDVDGQTLSKLIDYIYTAEIEVTEENVQVLLPAASLLQLMDVRQNCCDFLQSQLHPTNCLGIRAFADVHTCTDLLQQANAYAEQHFPEVMLGEEFLSLSLDQVCSLISSDKLTVSSEEKVFEAVISWINYEKETRLEHMAKLMEHVRLPLLPRDYLVQTVEEEALIKNNNTCKDFLIEAMKYHLLPLDQRLLIKNPRTKPRTPVSLPKVMIVVGGQAPKAIRSVECYDFEEDRWDQIAELPSRRCRAGVVFMAGHVYAVGGFNGSLRVRTVDVYDGVKDQWTSIASMQERRSTLGAAVLNDLLYAVGGFDGSTGLASVEAYSYKTNEWFFVAPMNTRRSSVGVGVVEGKLYAVGGYDGASRQCLSTVEQYNPATNEWIYVADMSTRRSGAGVGVLSGQLYATGGHDGPLVRKSVEVYDPGTNTWKQVADMNMCRRNAGVCAVNGLLYVVGGDDGSCNLASVEYYNPVTDKWTLLPTNMSTGRSYAGVAVIHKSL
- protein production: not failed

Sequence: MPRKQLKGETHDQKAQIASAFGEIEQSKIFLDKRSESAAVKMDIADLLKEIIQKQLRKDYDPEVESNIFINPERGDFEVYILKKIVKEVDLPTIEIGLDEVRQIDDSLELGDYYEEGPIKLDDYLTRKSIQIIKQSVQKKVRDLERLAVYEECLEKVGEVVAGEVYQVRPNEVIFTYNTSKDHRVELVLPKSEMMKKDNPRRTPRMKLYVKRIEREKVKVRNDDGTVEEREKPDGGMKVIVSRVDDRFLYKLFESEVPEILDGLIVIKGIARVPGERAKVAVESTSSRIDPVGATVGYRGKRIQSIVKELNNENIDVIYYTDEPQVFIARALQPAKIDPMTVHADMKTRKARVMLKPDQIKYAIGKNGNNIHLAEKLTGYEIDVYRDVIDKSLEDPNDIDIIEFREEFGDDMIYQLLDGGLDTAKKILKGGVEKIEEALLGTQKSEELFVFNKTRKPVKPKERRITDDEKRYWKKIAETIYRTVREQFNDEDLKALLDDSHERSLKGDGIDPEEIRDKETNLEHHHHHH
- protein production: failed

Sequence: MSAEQDKEPIALKRVRGGDSGLDGLGGPNIQLGSPDKKKRKANTQGSSFPPLSEYAPPPNPNSDHLVAANPFDDSYNTISYKPLPSSNPYLGPGYPGFGGYSTFRMPPHVPPRMSSPYCGPYSLRNQPHPFPQNPLGMGFNRPHAFNFGPHDNSNFGNPPYNNVLTQDINMPGQHFRQGSAENFSQIPPQNVGQVSNPDLASNFAPGNNSNFTSPLETNHSFIPPPNAFGQAKAPLPKQDFTQGATKTPNQNSSTHPPHLNMEDPVNQSNVELKNVNRNNVVQENSRSGSAEATNNHANGTQNKPRQPRGAADLCTPDKSRKFSLLPSRHGHSSSDPVYPCGICTNEVNDDQDAILCEASCQKWFHRICTGMTETAYGLLTAEASAVWGCDTCMADKDVQLMRTREAFGPPAVGGDA
- protein production: not failed

Sequence: MEAIFWLALALVAFTYAGYPLVLAVWDGAREALAAVRFVSGGDDRRGRATEGWPTVTLLFSAFDEEAWIRRKIENCLALDYPPDRLEILVGCDGCTDRTAEIAREVGGSRVKVHALSPRAGKASVLSRLVPQARGDLVVLTDANVMLERGALRALARRFREPGVGAVVGRLRLFNPTRREFEESLYWKYETAIKYYEGKHGCVLGANGGIYAIRRILFSPLPPDTIVDDFVIPVRIAARGWEVPFEPEAVAFEETTEDAGHEFGRRARIGAGNWQALARVPELLDPRTGFLCFAFVSHKLLRWSAPFLLAAAAVANGLLAAAPGAWGYRALLLAQAAFYGLALAGRHGAVGLRGPVRRLASLAHYFVAMNAALAVGLWRFLRRSQRAAWQRTERAGPSVPAA
- protein production: failed

Sequence: MEKKEMEKLCQRCKQSYTDLSNETSSCRFHPSFFVCRRHDDQKRYYELKPDDPPYAAKFYDCCGAEDPNAPGVKDLACDLSAGYCLEPLLALHTATE
- protein production: failed

Sequence: MTKIIPVASGKGGVGKTSFVANVGYKLSSLGKTVILVDLDLGGSNLHTCLGVKNKGVGIGSFINKKSKSFSDLVCKTSYDKLYLIPGDALYTGTANLPFSIKKKIIESIQKDLIADFIFLDLGSGTSYNTIDFYLASYSGVIVTIPETPSILNAYSFLKNALYRLLYLGFPQKSPERDYIGNFFKDKIEGTNLGFKDLVVGIELISLSSSLKVKRMMNNFYPRVVLNRIETSEEIAMCENLINVVKNNINIPIEFIGFVPFAKSFREAINNRVPFIDFEKNSKLNKYFEFIAGNLIKSPIEGSPYIYDDIYDMIKDQSRFIRKLEHHHHHH
- protein production: not failed

Sequence: MKLVKNLEIVESIFGDWDETIIWSCVQGIMGEVFVDSLDQPKSSLAKLGRKSSFGFLAGQPTLFLLEVCSGEDIILVPQHKGWSDLIESTYGQNAHSFKRYATKKDTLFERSRLEKFVTQLPNGFELRAIDEKVYNSCLEKEWSQDLVANYATYQYYKKQGIGYVVYYQGNIIAGASSYSTYKNGIEIEVDTHPDFRRRGLATIVAAQLILTCLDKGIYPSWDAHTRTSLNLSEKLGYEFSHEYIAYEID
- protein production: failed

Sequence: MISPELVKEALKKKKVRSEEAFGLEYLRFNDDYKDIPRGTAIFKDFIIWGYPHIGRIFLLETGLREQFEAPFWVEEKVDGYNTRIFKYGDNYYALSRGGFICPFTTDRLPDLIDLRILDENPDLVICAEVAGPENPYIEESPPYVKEDVQLFVFDFMKKNEQGFLSQEEKMELIEKYNLPHVEILGRFTASEEGIKKIKEILKRFNEEGREGVVFKEDSERNKRAKYITSYANLMDIKTNAKNMLQLPPEYYTNRILRLVLFMYEEGLKTTEHLYEELGRAFIDGLFQAIEQFEKEHKVYKTFTCKFRKKENAIALLELLSKTSKHIQVKERRLEKEGDYWRLEFDKVFLNMTGLLGHLLSGGIVYD
- protein production: not failed

Sequence: MSLSRPLLFALTALSLTAASLAHAADKKAADKPAPSAVSKADKALHDKFLTLDTHLDTPAHFGRPGWDIADHHEVEHDFSQVDLPRMNQGGLDGGFFVVYIGQGELTEKGYTYARDYALHRTIEIREMLAANPDTFEMALTSDDARRIAKAGKKFAFVSMENSWPVGEDLSLVETFYKEGLRMAGPVHFRNNQLADSSTDPKGKIWNGYSPLGLRWLAEANRLGIVIDVSHASDDVVDQSVALSKAPIIASHSGPKAVYDHPRNLDDARLKKIADAGGAICINSIYLTDTTPSPERKAALEALGRAPDMKTATPEAVKAYADKRAAIDKAHPAARGDFDLYMKSMLHVLKVAGPKGVCVGADWDGGGGMDGFEDITDLPKITARLKAEGYSDADIEAIWSGNVLRIVDAAQAYAKSVTKEGHHHHHH
- protein production: not failed

Sequence: MSSNVPADMINLRLILVSGKTKEFLFSPNDSASDIAKHVYDNWPMDWEEEQVSSPNILRLIYQGRFLHGNVTLGALKLPFGKTTVMHLVARETLPEPNSQGQRNREKTGESNCCVIL
- protein production: not failed

Sequence: AIATVYRLPASISFDEVIQRVSRENVGAVVRCAVGEEQLVVATSHRQEAWTVLKSFLINRCVPMEAREEEPSLGLEKPQYWDRLPANGRTPMERSDHGRGLEFQKSSQDDPVFEKECLLSGYGAQAPSQTGTESLQIPQVALLEEPVPPAYLKKAENAAVSFCGLVRKDRLSSDRVVSALVYESYREMAMLYIHRIAAEQNLHMFVHTVAGSVPVGSVSVLVTGPSVESVRLALEALKRYVPIWKEDVSVPCI
- protein production: failed

Sequence: MKLVLEGVDSFETLRVVGTFNCIDPDYVGSKRVTKKADVYAFEVILMELITGRKANYETLSVDEQNLVMWLRPKIKISTFLNLVDGTIATDKETIKRIKKIAKLAEYCTSQEVESRPLRASRTKSGNEVTSED
- protein production: failed

Sequence: MEGIDMLDIKLIRENPELVKNDLIKRGELEKVKWVDEILKLDTEWRTKLKEINRLRHERNKIAVEIGKRRKKGEPVDELLAKSREIVKRIGELENEVEELKKKIDYYLWRLPNITHPSVPVGKDENDNVPIRFWGKARVWKGHLERFLEQSQGKMEYEILEWKPKLHVDLLEILGGADFARAAKVSGSRFYYLLNEIVILDLALIRFALDRLIEKGFTPVIPPYMVRRFVEEGSTSFEDFEDVIYKVEDEDLYLIPTAEHPLAGMHANEILDGKDLPLLYVGVSPCFRKEAGTAGKDTKGIFRVHQFHKVEQFVYSRPEESWEWHEKIIRNAEELFQELEIPYRVVNICTGDLGYVAAKKYDIEAWMPGQGKFREVVSASNCTDWQARRLNIRFRDRTDEKPRYVHTLNSTAIATSRAIVAILENHQEEDGTVRIPKVLWKYTGFKEIVPVEKKERCCAT
- protein production: not failed

Sequence: MKTVGVVLSGCGVLDGAEIHESVLTMLALDRAGAEVLFFAPDKPQLHVINHITGEIVAEERNVLVESARIARGLITPLSAADPEVLDALIVPGGFGAAKNLCDFAIKGGECSVEPDLYKLIQLMHKSGKPIGLMCISPVMLPKLLGKPIRLTIGNDPDTIDAIEIMGGEHVICPADDVVIDLENKVVTTPAYMLAGSISEAAKGIDKLVTKVLDLTE
- protein production: failed

Sequence: MLFTMMVSLYTSRVVLATLGVEDFGIYNVVGGVVTMFAIISTSLSSAISRFITIELGKGDLRRLKTVFSTAVVIQFLMALVVVILAELIGVWFLNNKMNIPEVRMNAANWVLQFSIFTFGVNLICIPFNALIIAHERMSAFAYVSILEVSLKLLIVYLLVLMSVDKLIVYGALLLVVAIVITFAYFIYCRRHFKECKCFCRIDRFLLKRMLSFSGWNFIGASSAILRDQGVNIAINLFCGPTVNAARGMAVQVNHAINSFAQNFMTALNPQITKSFAVGDSKYMFTLIFQGARLSFYMLLFLSLPVLMSTEYILSIWLKIVPDYTIIFVRLVLIFAMCESISNPLITAMLATGSIRNYQIVVGGMQMMNFPISYILLERGYAPEITLYVAIGISLCCLALRLFMLRSMIQLPVRSYMKNVFFNICAVTIFSVAIPYLISLRLQSSFYSFLILSFSCIICSFMAIFFVGCKASERVFVVDQVRKLIKNNL
- protein production: failed

From a protein production outcome set (Wang et al. 2014)
